Substrate in this data set: O[C@H]1[C@H](O)[C@@H](O)[C@H](O)[C@@H](O)[C@H]1O
As to the kind of experiment: [3H]myo-inositol uptake by the myo-inositol transporter in PC12 cells. In kind it is cell-based, rat. As to conditions: other: Lineweaver-Burke plots, [3H]myo-inositol 25 nM with increasing unlabeled myo-inositol, 37.0 °C. How it is done: To determine if the effect of the fluoro-myo-inositol analogs might be mediated by the blockade of the myo-inositol transporter, which is responsible for uptake and accumulation of myo-inositol into the cell, the ability of these two compounds to block [^3 H]myo-inositol transport was studied directly.
The uptake of [^3 H]myo-inositol by the myo-inositol transporter was determined as follows:
PC12 cells were gently detached and maintained in a suspension culture in RPMI medium (both myo-inositol and serum free) at 37° C. ]^3 H]myo-inositol was added to this culture at a concentration of 1μCi/ml. Aliquots of this suspension were removed at the indicated time, diluted in 10 volumes of ice-cold PBS containing 10 mM unlabelled myo-inositol to stop the uptake process, centrifuged at 4° C. for 20 minutes at 50 xg. The cell pellet, which contained the transported [^3 H]myo-inositol, was dissolved in dilute NaOH and the radioactivity quantified by liquid scintillation counting.
The […] and Vmax of myoinositol were determined from LineweaverBurke plots
of the uptake of [^3 H]myoinositol (25 nM) in the presence of
increasing concentrations of unlabeled myoinositol in PC12 cells. The Ki
of the two fluoromyo-inositol analogs was determined by conducting the
uptake studies in the presence of a fixed concentration (1 mM) of each

B1: myo-inositol transporter (Rattus norvegicus) (protein)
chain: MRAVLETADIAIVALYFVLVMCIGFFAMWKSNRSTVSGYFLAGRSMTWVAIGASLFVSNIGSEHFIGLAGSGAASGFAVGAWEFNALLLLQLLGWVFIPIYIRSGVYTMPEYLSKRFGGHRIQVYFAALSLLLYIFTKLSVDLYSGALFIQESLGWNLYVSVILLIGMTALLTVTGGLVAVIYTDTLQALLMIIGALTLMVISMMKVGGFEEVKRRYMLASPNVASILLTHNLSNTNSCMVHPKADALKMLRDPTDEDVPWPGFILGQTPASVWYWCADQVIVQRVLAAKNIAHAKGSTLMAGFLKLLPMFIIVVPGMISRILFVDDIACINPEHCMQVCGSRAGCSNIAYPRLVMELVPVGLRGLMMAVMIAALMSDLDSIFNSASTIFTLDVYKLLRNNASSRELMIVGRIFVAFMVVISIAWVPIIVEMQGGQMYLYIQEVADYLTPPVAALFLLAIFWKRCNEQGAFYGGMAGFVLGAIRLILAFTYRAPECDQPDNRPSFIKDIHYMYVATALFWITGLITVIVSLLTPPPTKDQIRTTTFWSKKTVVTKESCSQKDEPYKMQEKSILRCSENSEVVSHTIPNGKSEDSIKGLQPEDVNLLVTCREEGNPVASMGHSGAETPVDAYSNGQAALMGERAREKETESRSRYWKFIDWFCGFKSRSLSKRSLRDSMDEEAVCLQMLEETPRVRVILNIGLFAVCSLGIFMFVYFSL
notes: PC12 cells were gently detached and maintained in a suspension culture; endogenous in cells; host or cells: PC12 cells
On to B1, for which the Km (in general, the concentration of substrate that gives half-maximal velocity) turned out to be 45 µM and the maximum rate (Vmax) (in general, the top rate of the reaction or transport when substrate is in excess) is 2.27 nmol/mg/h.

The values above are taken from patent US4937390A, “Compound useful for the production of 3-deoxy-3-fluoro-myo-inositol” (University of Pittsburgh, priority 1989, dated 1990).
